Data published in patent US20180258158A1 (Bristol-Myers Squibb, published 2018).

What was measured:
[1] = target: T1, mouse serum albumin (MSA), full length (mouse, UniProt P07724 25-608); assay: direct binding ELISA, coated MSA, anti-His-HRP; design: unit not given here
T1 construct: mature; Immobilized on CM5 chip (SPR) or coated on plates (ELISA); also called mouse albumin; murine serum albumin
Protocol: (§1) Direct binding ELISA assays were conducted as follows. Full length human and murine serum albumin at 10ug/ml in PBS were coated on Nunc Maxisorp plates overnight at 4° C. Plates were blocked in casein/PBS buffer. PKE Adnectins were allowed to bind over a 4-point concentration range of 0.032-4 uM for HSA and 0.008-1 uM for MSA. Bound Adnectin was detected by anti-His antibody conjugated with HRP (horseradish peroxidase) diluted 1:1500 in casein/PBS. Plates were developed with TMB substrate and absorbance read at 450 nm. Adnectins were binned as high, medium and low affinity binders based on the observed Ymax of the concentration response curves.

[2] = target: T1, mouse serum albumin (MSA), full length; assay: SPR off-rate ratio to parent ADX_7016_A01, MSA, 25 C
Protocol: (§2) Measurements were conducted by SPR and ELISA. SPR was conducted as follows. Full length HSA or mouse albumin was immobilized on a Biacore T series CM5 chip at 15 ug/mL in 10 mM acetate buffer (pH 5.0) buffer using standard NHS/EDC coupling, to a surface density of approximately 1000-1100 RU. For off-rate measurements at 25° C., PKE Adnectins were applied as analytes at 500 nM in HBS-P+(0.01 M HEPES pH 7.4, 0.15 M NaCl, 0.005% v/v Surfactant P20) running buffer at a flow rate of 20ul/min for 120 s over the immobilized albumins, followed by 800 s for dissociation. […] Regeneration of the chip surface between cycles was accomplished with two 30 second pulses of 10 mM Glycine, pH 2.0. Kinetic traces of reference-subtracted sensorgrams were fit to a 1:1 binding model for affinity using the Biaevaluation software. Only the dissociation phase was fit for determination of off-rates.

[3] = target: T2, human serum albumin (HSA), full length (human, UniProt P02768 25-609); assay: SPR off-rate, immobilized HSA, 500 nM Adnectin, 25 C
T2 construct: mature; Immobilized on CM5 chip (SPR) or coated on plates (ELISA)
Protocol: as §2

[4] = target: T2, human serum albumin (HSA), full length; assay: direct binding ELISA, coated HSA, anti-His-HRP; design: unit not given here
Protocol: as §1

[5] = target: T1, mouse serum albumin (MSA), full length; assay: SPR off-rate, immobilized MSA, 500 nM Adnectin, 25 C
Protocol: as §2

[6] = target: T2, human serum albumin (HSA), full length; assay: SPR off-rate ratio to parent ADX_7016_A01, HSA, 25 C
Protocol: as §2

T2 sequence (P02768 25-609): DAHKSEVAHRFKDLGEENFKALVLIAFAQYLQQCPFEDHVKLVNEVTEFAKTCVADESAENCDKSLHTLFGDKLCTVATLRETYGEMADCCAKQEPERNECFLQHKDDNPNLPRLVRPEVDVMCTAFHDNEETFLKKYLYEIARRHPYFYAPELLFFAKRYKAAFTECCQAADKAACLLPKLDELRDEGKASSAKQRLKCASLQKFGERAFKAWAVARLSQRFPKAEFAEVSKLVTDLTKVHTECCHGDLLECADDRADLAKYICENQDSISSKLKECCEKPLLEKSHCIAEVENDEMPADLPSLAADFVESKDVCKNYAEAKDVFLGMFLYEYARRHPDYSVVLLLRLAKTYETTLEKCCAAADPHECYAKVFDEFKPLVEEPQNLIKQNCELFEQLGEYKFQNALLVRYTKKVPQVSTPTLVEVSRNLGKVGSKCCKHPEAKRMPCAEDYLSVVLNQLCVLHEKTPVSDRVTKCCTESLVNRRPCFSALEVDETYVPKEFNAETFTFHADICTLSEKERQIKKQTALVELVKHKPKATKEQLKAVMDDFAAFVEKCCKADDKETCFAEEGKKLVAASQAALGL

Row | Binder | MSA DB ELISA (OD450) Ymax obs [1] | MSA DB ELISA (OD450) Ymin obs [1] | MSA kd/Parent kd [2] | koff [3] [s⁻¹] | HSA DB ELISA (OD450) Ymax obs [4] | HSA DB ELISA (OD450) Ymin obs [4] | koff [5] [s⁻¹] | HSA kd/Parent kd [6]
1 | ADX_6727_B01 (K85S) (designed binder, Full His6-tagged entry) MGVSDVPRDLEVVAATPTSLLISWDAPAVTVRYYRITYGREVQKYSDLGPLYIYQEFTVPGSKSTATISGLKPGVDYTITVYAVTGSGESPASSSPISINYRTEIDKPSQHHHHHH | 91 | 88 | 1.2 | 0.000321 | 97 | 94 | 0.000501 | 1.2
2 | ADX_6727_C07 (R30A/K85S) (designed binder, Full His6-tagged entry) MGVSDVPRDLEVVAATPTSLLISWDAPAVTVRYYRITYGAEVQKYSDLGPLYIYQEFTVPGSKSTATISGLKPGVDYTITVYAVTGSGESPASSSPISINYRTEIDKPSQHHHHHH | 94 | 6 | 7.8 | 0.00218 | 100 | 44 | 0.00334 | 8
3 | ADX_6727_C03 (Y35S) (designed binder, Full His6-tagged entry) MGVSDVPRDLEVVAATPTSLLISWDAPAVTVRYYRITYGREVQKSSDLGPLYIYQEFTVPGSKSTATISGLKPGVDYTITVYAVTGSGESPASSKPISINYRTEIDKPSQHHHHHH | 95 | 23 | 2.8 | 0.00107 | 99 | 31 | 0.00121 | 4
4 | ADX_6727_B05 (I43S/K85T) (designed binder, Full His6-tagged entry) MGVSDVPRDLEVVAATPTSLLISWDAPAVTVRYYRITYGREVQKYSDLGPLYSYQEFTVPGSKSTATISGLKPGVDYTITVYAVTGSGESPASSTPISINYRTEIDKPSQHHHHHH | 63 | 2 | 18.2 | 0.00749 | 60 | 4 | 0.00781 | 28
5 | ADX_6727_D10 (Q33D/K85T) (designed binder, Full His6-tagged entry) MGVSDVPRDLEVVAATPTSLLISWDAPAVTVRYYRITYGREVDKYSDLGPLYIYQEFTVPGSKSTATISGLKPGVDYTITVYAVTGSGESPASSTPISINYRTEIDKPSQHHHHHH | 42 | 1 | 142 | 0.0134 | 19 | 2 | 0.0608 | 50
6 | ADX_6727_B11 (Q33D/K85S) (designed binder, Full His6-tagged entry) MGVSDVPRDLEVVAATPTSLLISWDAPAVTVRYYRITYGREVDKYSDLGPLYIYQEFTVPGSKSTATISGLKPGVDYTITVYAVTGSGESPASSSPISINYRTEIDKPSQHHHHHH | 11 | 1 |  | 0.0151 | 12 | 1 |  | 56
7 | ADX_6727_D01 (K85T) (designed binder, Full His6-tagged entry) MGVSDVPRDLEVVAATPTSLLISWDAPAVTVRYYRITYGREVQKYSDLGPLYIYQEFTVPGSKSTATISGLKPGVDYTITVYAVTGSGESPASSTPISINYRTEIDKPSQHHHHHH | 91 | 88 | 1 | 0.000259 | 97 | 88 | 0.000433 | 1
8 | ADX_6727_F04 (Y44A/K85A) (designed binder, Full His6-tagged entry) MGVSDVPRDLEVVAATPTSLLISWDAPAVTVRYYRITYGREVQKYSDLGPLYIAQEFTVPGSKSTATISGLKPGVDYTITVYAVTGSGESPASSAPISINYRTEIDKPSQHHHHHH | 77 | 2 | 16.2 | 0.00624 | 56 | 6 | 0.00694 | 23
9 | ADX_6727_C01 (K85A) (designed binder, Full His6-tagged entry) MGVSDVPRDLEVVAATPTSLLISWDAPAVTVRYYRITYGREVQKYSDLGPLYIYQEFTVPGSKSTATISGLKPGVDYTITVYAVTGSGESPASSAPISINYRTEIDKPSQHHHHHH | 93 | 90 | 1.2 | 0.000297 | 98 | 88 | 0.000509 | 1.1
10 | ADX_6727_D02 (R30N) (designed binder, Full His6-tagged entry) MGVSDVPRDLEVVAATPTSLLISWDAPAVTVRYYRITYGNEVQKYSDLGPLYIYQEFTVPGSKSTATISGLKPGVDYTITVYAVTGSGESPASSKPISINYRTEIDKPSQHHHHHH | 93 | 17 | 2.8 | 0.00135 | 99 | 20 | 0.00118 | 5
11 | ADX_6727_D06 (Y44A/K85S) (designed binder, Full His6-tagged entry) MGVSDVPRDLEVVAATPTSLLISWDAPAVTVRYYRITYGREVQKYSDLGPLYIAQEFTVPGSKSTATISGLKPGVDYTITVYAVTGSGESPASSSPISINYRTEIDKPSQHHHHHH | 85 | 1 | 14.5 | 0.00546 | 67 | 8 | 0.00622 | 20
12 | ADX_6727_F03 (I43Y as printed in Table 4; I43A in Table 7) (designed binder, Full His6-tagged entry) MGVSDVPRDLEVVAATPTSLLISWDAPAVTVRYYRITYGREVQKYSDLGPLYAYQEFTVPGSKSTATISGLKPGVDYTITVYAVTGSGESPASSKPISINYRTEIDKPSQHHHHHH | 67 | 2 | 8.9 | 0.00468 | 89 | 9 | 0.0038 | 17
